Results on 13 molecules are retold here after patent US20190112365A1 (EISAI R AND D MANAGEMENT, published 2019).

The target in this assay is T1, Human Tau 2N4R, wild type, recombinant full length (human, UniProt P10636 2-758).
T1 construct: Full length 2N4R isoform; monomer in SPR and ELISA; heparin-induced aggregates or seeds in the functional assays; also called Tau441; Tau-441
Description: SPR BIAcore, mAb captured by anti-human IgG, Tau flowed, 1:1 Langmuir. On the procedure: All experiments were performed using a BIAcore™ T-100 instrument (GE Healthcare). 10 μL anti-human IgG (monoclonal mouse anti-human Fc) from human antibody capture kit (GE Healthcare) was diluted to 25 μL/mL in 200 μL final immobilization buffer (10 mM sodium acetate, pH 5.0). The flow rate was set to 5 μL/min, flowpath 1. Fifty μL N-hydroxysuccinamide (NETS) and 50 μL 1-ethyl-3-(3-dimethylaminopropyl) carbidiimide (EDC) were mixed and injected for 420 sec to activate the CM5 chip surface. The diluted antibody was injected for 360 seconds followed by 1 M ethanolamine for 420 seconds. The flowpath was then switched to flowpath 2. A new EDC/NHS mixture was prepared and the procedure was repeated for flow cell 2. The surface was conditioned by 2 injections of 30 sec using flowpath 1, 2 at 30 μL/min of 3M MgCl₂. For the anti-mouse surface, 10 μL anti-mouse IgG (polyclonal rabbit anti-mouse IgG) from mouse antibody capture kit (GE Healthcare) was diluted to 30 μL/mL in 324 μL final immobilization buffer (10 mM sodium acetate, pH 5.0). The flow rate was set to 5 μL/min, flowpath 3. Fifty μL NHS and 50 μL EDC were mixed and injected for 420 sec to activate the chip surface. The diluted antibody was injected for 420 sec. 1 M ethanolamine was injected for 420 sec. Flow path was switched to flowpath 4. A new EDC/NHS mixture was prepared and the procedure was repeated for flow cell 4. The surface was conditioned by 2 injections of 30 sec using flowpath 3, 4 at 30 μL/min of 10 mM glycine, pH 1.7.
Binding of humanized and mouse antibodies were analyzed by surface plasmon resonance (BIAcore™) to determine their relative association rates (kₐ), dissociation rates (kd), and equilibrium binding constants (KD). Anti-mouse or anti-human antibodies were immobilized on a CM5 chip and sample mAbs were captured on the chip. 2N4R Tau was flowed over the chip and binding observed. The binding constants kₐ, kd, and KD were determined using a 1:1 Langmuir fitting model.

T1 sequence (P10636 other isoform, or with tags, fused parts or gaps limits assumed): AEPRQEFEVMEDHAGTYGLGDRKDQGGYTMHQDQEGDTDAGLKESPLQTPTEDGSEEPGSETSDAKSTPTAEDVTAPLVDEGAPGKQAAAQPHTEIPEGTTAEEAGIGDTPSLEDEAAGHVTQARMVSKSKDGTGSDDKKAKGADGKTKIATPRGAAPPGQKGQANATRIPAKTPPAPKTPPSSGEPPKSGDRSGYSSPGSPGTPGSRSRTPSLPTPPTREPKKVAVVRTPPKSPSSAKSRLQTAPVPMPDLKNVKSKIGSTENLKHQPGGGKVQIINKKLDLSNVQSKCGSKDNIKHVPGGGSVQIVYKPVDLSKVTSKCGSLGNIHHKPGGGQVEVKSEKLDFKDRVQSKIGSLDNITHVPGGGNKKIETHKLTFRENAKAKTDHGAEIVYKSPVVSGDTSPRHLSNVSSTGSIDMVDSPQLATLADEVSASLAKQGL

B1: 7G6-HCzu1-LCzu1 (antibody, human IgG1, kappa, V domains shown)
VH: QVQLVQSGAEVKKPGASVKVSCKASGYTFTTYWITWVRQAPGQGLEWMGDIYPGSSICNYNEKFKSRVTMTRDTSTSTVYMELSSLRSEDTAVYYCAREDGYDAWFAYWGQGTLVTVSS
VL: DVVMTQSPLSLPVTLGQPASISCRSSQSILHSNGNTYLEWFQQRPGQSPRRLIYKVSNRFSGVPDRFSGSGSGTDFTLKISRVEAEDVGVYYCFQGSHVPFTFGQGTKLEIKR
notes: humanized, human IgG1 kappa
Broadly, the Kd is the free concentration of one partner at which half of the binding sites on the other are occupied at equilibrium, for simple one-to-one binding. What is called koff is a measure of how fast the partners let go of each other. The term kon denotes the rate constant with which the complex forms. Take B1: the Kd stood at 0.202 nM, the koff turned out to be 0.000519 s⁻¹ and the kon turned out to be 2.57e+06 M⁻¹ s⁻¹.

B2: 7G6-HCzu5-LCzu6 (antibody, human IgG1, kappa, V domains shown)
VH: QVQLVQSGAEVKKPGASVKVSCKASGYTFTTYWITWVRQAPGQGLEWMGDIYPGSSISNYNEKFKSRVTMTVDTSTSTAYMELSSLRSEDTAVYYCAREDGYDAWFAYWGQGTLVTVSS
VL: DVVMTQSPLSLPVTLGQPASISCRSSQSILHSNGNTYLEWYQQRPGQSPRLLISKVSNRFSGVPDRFSGSGSGTDFTLKISRVEAEDVGVYYCFQGSHVPFTFGQGTKLEIKR
notes: humanized, human IgG1 kappa
In the case of B2, the Kd came to 0.0961 nM, the koff stood at 0.000206 s⁻¹ and the kon came to 2.14e+06 M⁻¹ s⁻¹.

B3: 7G6-HCzu5-LCzu7 (antibody, human IgG1, kappa, V domains shown)
VH: QVQLVQSGAEVKKPGASVKVSCKASGYTFTTYWITWVRQAPGQGLEWMGDIYPGSSISNYNEKFKSRVTMTVDTSTSTAYMELSSLRSEDTAVYYCAREDGYDAWFAYWGQGTLVTVSS
VL: DVVMTQSPLSLPVTLGQPASISCRSSQSILHSNGNTYLEWFQQRPGQSPRRLISKVSNRFSGVPDRFSGSGSGTDFTLKISRVEAEDVGVYYCFQGSHVPFTFGQGTKLEIKR
notes: humanized, human IgG1 kappa
As to B3, the Kd stood at 0.0968 nM, the koff was 0.000304 s⁻¹ and the on-rate constant (kon) worked out at 3.14e+06 M⁻¹ s⁻¹.

B4: 7G6-HCzu1-LCzu2 (antibody, human IgG1, kappa, V domains shown)
VH: QVQLVQSGAEVKKPGASVKVSCKASGYTFTTYWITWVRQAPGQGLEWMGDIYPGSSICNYNEKFKSRVTMTRDTSTSTVYMELSSLRSEDTAVYYCAREDGYDAWFAYWGQGTLVTVSS
VL: DVVMTQSPLSLPVTLGQPASISCRSSQSILHSNGNTYLEWYQQRPGQSPRLLICKVSNRFSGVPDRFSGSGSGTDFTLKISRVEAEDVGVYYCFQGSHVPFTFGQGTKLEIKR
notes: humanized, human IgG1 kappa
In the case of B4, the Kd came out at 0.11 nM, the koff is 0.000241 s⁻¹ and the kon was determined as 2.2e+06 M⁻¹ s⁻¹.

B5: 7G6-HCzu4-LCzu1 (antibody, human IgG1, kappa, V domains shown)
VH: QVQLVQSGAEVKKPGASVKVSCKASGYTFTTYWITWVRQAPGQGLEWMGDIYPGSSICNYAQKFQGRVTMTVDTSTSTAYMELSSLRSEDTAVYYCAREDGYDAWFAYWGQGTLVTVSS
VL: DVVMTQSPLSLPVTLGQPASISCRSSQSILHSNGNTYLEWFQQRPGQSPRRLIYKVSNRFSGVPDRFSGSGSGTDFTLKISRVEAEDVGVYYCFQGSHVPFTFGQGTKLEIKR
notes: humanized, human IgG1 kappa
With B5, the Kd was 0.237 nM, the koff was 0.000847 s⁻¹ and the kon is 3.57e+06 M⁻¹ s⁻¹.

B6: 7G6-HCzu2-LCzu2 (antibody, human IgG1, kappa, V domains shown)
VH: QVQLVQSGAEVKKPGASVKVSCKASGYTFTTYWITWVRQAPGQGLEWMGDIYPGSSICNYNEKFKSRVTMTVDTSTSTVYMELSSLRSEDTAVYYCAREDGYDAWFAYWGQGTLVTVSS
VL: DVVMTQSPLSLPVTLGQPASISCRSSQSILHSNGNTYLEWYQQRPGQSPRLLICKVSNRFSGVPDRFSGSGSGTDFTLKISRVEAEDVGVYYCFQGSHVPFTFGQGTKLEIKR
notes: humanized, human IgG1 kappa
For B6, the Kd worked out at 0.101 nM, the koff is 0.000214 s⁻¹ and the kon came out at 2.12e+06 M⁻¹ s⁻¹.

B7: 7G6-HCzu5-LCzu8 (antibody, human IgG1, kappa, V domains shown)
VH: QVQLVQSGAEVKKPGASVKVSCKASGYTFTTYWITWVRQAPGQGLEWMGDIYPGSSISNYNEKFKSRVTMTVDTSTSTAYMELSSLRSEDTAVYYCAREDGYDAWFAYWGQGTLVTVSS
VL: DVVMTQSPLSLPVTLGQPASISCRSSQSIVHSNGNTYLEWFQQRPGQSPRRLISKVSNRFSGVPDRFSGSGSGTDFTLKISRVEAEDVGVYYCFQGSHVPFTFGQGTKLEIKR
notes: humanized, human IgG1 kappa
Take B7: the Kd was 0.0828 nM, the koff turned out to be 0.000298 s⁻¹ and the kon was 3.6e+06 M⁻¹ s⁻¹.

B8: 7G6-HCzu5-LCzu2 (antibody, human IgG1, kappa, V domains shown)
VH: QVQLVQSGAEVKKPGASVKVSCKASGYTFTTYWITWVRQAPGQGLEWMGDIYPGSSISNYNEKFKSRVTMTVDTSTSTAYMELSSLRSEDTAVYYCAREDGYDAWFAYWGQGTLVTVSS
VL: DVVMTQSPLSLPVTLGQPASISCRSSQSILHSNGNTYLEWYQQRPGQSPRLLICKVSNRFSGVPDRFSGSGSGTDFTLKISRVEAEDVGVYYCFQGSHVPFTFGQGTKLEIKR
notes: humanized, human IgG1 kappa
Take B8: the Kd was 0.127 nM, the koff was found to be 0.000237 s⁻¹ and the kon is 1.86e+06 M⁻¹ s⁻¹.

B9: 7G6-HCzu4-LCzu2 (antibody, human IgG1, kappa, V domains shown)
VH: QVQLVQSGAEVKKPGASVKVSCKASGYTFTTYWITWVRQAPGQGLEWMGDIYPGSSICNYAQKFQGRVTMTVDTSTSTAYMELSSLRSEDTAVYYCAREDGYDAWFAYWGQGTLVTVSS
VL: DVVMTQSPLSLPVTLGQPASISCRSSQSILHSNGNTYLEWYQQRPGQSPRLLICKVSNRFSGVPDRFSGSGSGTDFTLKISRVEAEDVGVYYCFQGSHVPFTFGQGTKLEIKR
notes: humanized, human IgG1 kappa
Regarding B9, the Kd was 0.121 nM, the off-rate constant (koff) was 0.000242 s⁻¹ and the kon was 2e+06 M⁻¹ s⁻¹.

B10: 7G6-HCzu2-LCzu1 (antibody, human IgG1, kappa, V domains shown)
VH: QVQLVQSGAEVKKPGASVKVSCKASGYTFTTYWITWVRQAPGQGLEWMGDIYPGSSICNYNEKFKSRVTMTVDTSTSTVYMELSSLRSEDTAVYYCAREDGYDAWFAYWGQGTLVTVSS
VL: DVVMTQSPLSLPVTLGQPASISCRSSQSILHSNGNTYLEWFQQRPGQSPRRLIYKVSNRFSGVPDRFSGSGSGTDFTLKISRVEAEDVGVYYCFQGSHVPFTFGQGTKLEIKR
notes: humanized, human IgG1 kappa
Take B10: the Kd worked out at 0.226 nM, the koff turned out to be 0.00064 s⁻¹ and the kon turned out to be 2.83e+06 M⁻¹ s⁻¹.

B11: 7G6-HCzu3-LCzu2 (antibody, human IgG1, kappa, V domains shown)
VH: QVQLVQSGAEVKKPGASVKVSCKASGYTFTTYWITWVRQAPGQGLEWMGDIYPGSSICNYNEKFKSRVTMTVDTSTSTAYMELSSLRSEDTAVYYCAREDGYDAWFAYWGQGTLVTVSS
VL: DVVMTQSPLSLPVTLGQPASISCRSSQSILHSNGNTYLEWYQQRPGQSPRLLICKVSNRFSGVPDRFSGSGSGTDFTLKISRVEAEDVGVYYCFQGSHVPFTFGQGTKLEIKR
notes: humanized, human IgG1 kappa
For the molecule B11, the Kd came to 0.121 nM, the koff was found to be 0.000242 s⁻¹ and the kon came out at 2e+06 M⁻¹ s⁻¹.

B12: 7G6-HCzu3-LCzu6 (antibody, human IgG1, kappa, V domains shown)
VH: QVQLVQSGAEVKKPGASVKVSCKASGYTFTTYWITWVRQAPGQGLEWMGDIYPGSSICNYNEKFKSRVTMTVDTSTSTAYMELSSLRSEDTAVYYCAREDGYDAWFAYWGQGTLVTVSS
VL: DVVMTQSPLSLPVTLGQPASISCRSSQSILHSNGNTYLEWYQQRPGQSPRLLISKVSNRFSGVPDRFSGSGSGTDFTLKISRVEAEDVGVYYCFQGSHVPFTFGQGTKLEIKR
notes: humanized, human IgG1 kappa
For the molecule B12, the Kd was found to be 0.12 nM, the koff was 0.000227 s⁻¹ and the on-rate (kon) stood at 1.9e+06 M⁻¹ s⁻¹.

B13: 7G6-HCzu3-LCzu1 (antibody, human IgG1, kappa, V domains shown)
VH: QVQLVQSGAEVKKPGASVKVSCKASGYTFTTYWITWVRQAPGQGLEWMGDIYPGSSICNYNEKFKSRVTMTVDTSTSTAYMELSSLRSEDTAVYYCAREDGYDAWFAYWGQGTLVTVSS
VL: DVVMTQSPLSLPVTLGQPASISCRSSQSILHSNGNTYLEWFQQRPGQSPRRLIYKVSNRFSGVPDRFSGSGSGTDFTLKISRVEAEDVGVYYCFQGSHVPFTFGQGTKLEIKR
notes: humanized, human IgG1 kappa
In the case of B13, the Kd is 0.309 nM, the koff turned out to be 0.000856 s⁻¹ and the kon turned out to be 2.77e+06 M⁻¹ s⁻¹.
